Measured values published in PMC12240541 (Science (New York, N.Y.), 2021).

B1: S2X303 mAb (antibody, V domains shown)
VH: QITLKESGPTLVKPTQTLTLTCKLSGFSVNTGGVGVGWIRQPPGKALEWLALIYWNDDKLYSPSLKSRLTVTKDTSKNQVVLTMTNMDPVDTATYYCAHVLVWFGEVLPDAFDVWGQGTMVTVSS
VL: SYELTQPPSVSVSPGQTASITCSGDKLGETYASWYQQKPGQSPILVIYQDNKRPSGIPERFSGSNSENTATLTISGTQTMDEADYYCQAWDKTIAGFGGGTKLTV
notes: copies: 2 + 2
B2: S2L20 mAb (antibody, V domains shown)
VH: EVQLVESGGGVVQPGGSLRLSCAASGFTFNSYGMHWVRQAPGKGLEWVAFIRYDGGNKYYADSVKGRFTISRDNSKNTLYLQMKSLRAEDTAVYYCANLKDSRYSGSYYDYWGQGTLVTVS
VL: not shown
notes: copies: 2 + 2

Target: recombinant SARS-CoV-2 wildtype Wuhan-Hu-1 S ectodomain trimer (SARS-CoV-2, Wuhan-Hu-1, UniProt P0DTC2)
Experiment: ELISA
Conditions: both partners purified

| Binder | binding result |
| --- | --- |
| B1 | binds |
| B2 | binds |
